Reference: US20250051443A1 (NATIONAL RESEARCH COUNCIL OF CANADA, published 2025)

What was measured:
human CD3 [1] = molecular target: T1, human CD3 (human, UniProt P07766 23-207; P09693 23-182; P04234 22-171); test: flow competition on Jurkat, 100 nM unlabeled mAb; competitor AF488-SP34.2 20 nM
T1 construct: whole, on cells; also called CD3 on Jurkat T cells; CD3 on primary human T cells
Procedure: (§1) In order to evaluate whether anti-CD3 monoclonal antibodies bind to the same epitope region, flow cytometry competition experiments on Jurkat cells were performed.
(§2) To that effect, a fixed concentration of the indicated AF488-labeled mAb were incubated with 100 nM of unlabeled monoclonal antibodies to assess if their binding capacity was impaired in presence of unlabeled mAbs. […] The AF488-OKT3 mIgG2b was labeled in-house using AlexaFluor488 protein labelling kit (Invitrogen #A10235) following manufacturer's instruction. The free dye removal step was done using Zeba™ Spin Desalting Columns, 7K MWCO (Thermo Scientific #89890). The final product was analyzed by UPLC-SEC to ensure the integrity of the labeled mAb.

human CD3 [2] = molecular target: T1, human CD3; test: apparent KD (KDapp), flow cytometry titration on purified primary human T cells
Procedure: The binding characteristics of the purified anti-CD3 mAbs were assessed in titration studies on purified human primary T cells from different donor samples. Fresh ex vivo peripheral blood mononuclear cells (PBMCs) were obtained via density centrifugation over Ficoll-Paque using standard procedures and untouched T cell fractions obtained from PBMCs by negative pan-T cell selection and magnetic cell sorting. Starting from 300 nM concentrations of the anti-CD3 mAbs, eight point binding curves were generated from the resultant mean fluorescence intensity (MFI) values obtained through detection of labelled secondary antibody to bound CD3 in flow cytometry experiments (FIGS. 3A and 3B). Both commercial mouse anti-human CD3 mAb (OKT-3; Biolegend) and an in house generated IgG1 version of OKT-3 were employed as positive controls together with a non-specific mouse IgG serving as a negative binding control. Following curve fit analysis using one-site specific binding with Hill slope, the KDapp (concentration needed to achieve a half-maximum binding at equilibrium) for each mAb was calculated (Table 2).
Eight point binding titrations were performed with the anti-CD3 mAbs starting at either 300 or 100 nM on freshly purified human T cells obtained through negative selection from PBMC fractions. Briefly, 1×10⁵ human T cells (50 μL of staining buffer (SB; PBS/1% BSA/0.01% NaN3) were incubated with graded dilutions of the anti-CD3 mAbs in SB ([…]) for 2 hours at 4° C. in 96 w U-bottom plates, followed by plate washing with SB ([…]). Cell pellets were resuspended with 25 μL of a 0.25 mg/mL solution of the goat (Fab′)₂ anti-mouse IgG (H+L)− APC secondary antibody in SB, incubated at 4° C. (30 min.), washed 1× with SB, and resuspended for flow analysis. Recombinant anti-human OKT-3 IgG2b (in house produced) and non-specific mIgG were employed similarly as positive and negative controls respectively. 10K live events were acquired on a BD LSRFortessa flow analyzer and mean fluorescence intensities (MFI) calculated after subtraction of secondary antibody alone values. Using GraphPad Prism software, the data were analyzed using a one site specific binding with Hill slope non-linear regression model to calculate KDapp and BMax values (See Table 2).

human CD3 [3] = molecular target: T1, human CD3; test: flow competition on Jurkat, 100 nM unlabeled mAb; competitor AF488-UCHT1 5 nM
Procedure: as §1, §2

human CD3 [4] = molecular target: T1, human CD3; test: apparent KD (KDapp), flow cytometry titration on Jurkat cells
Procedure: Unless otherwise stated, all media are kept are 4° C. and all incubations are performed on wet ice. Exponentially growing Jurkat cells were centrifuged and resuspended in complete medium at a cell density of 2×10⁶ cells/mL. Fifty μL/well of cells were distributed in a polypropylene v-bottom 96 well plate and serial 1/3 dilutions of purified mAbs starting at 300 nM were added and incubated for 2 hours. Cells were washed twice by centrifugation and further incubated with a FITC labeled F(ab′)2 goat anti-mouse antibody (Fc specific, #115-096-071, Jackson Immunoresearch, Cedarlane, Burlington, ON) for an hour. Cells were washed and re-suspended in medium containing Propidium iodide to exclude dead cells from analysis. Samples were filtered through a 60 μm nylon mesh filter plate (Millipore, Ireland) to remove cell aggregates. Flow cytometry analyses were performed on 2,000 viable single-cells events gated on forward scattering, side scattering parameters and propidium iodide dye exclusion using a BD-LSRFortessa flow cytometer (Becton-Dickinson Biosciences, CA, USA) and a standard filter set using BD FACSDiva™ acquisition software, according to manufacturer's instructions.

Cynomolgus CD3 = molecular target: T2, Cynomolgus CD3 (Cynomolgus, UniProt Q95LI5 22-198; Q95LI7 23-181; Q95LI8 22-171); test: apparent KD (KDapp), flow cytometry titration on cynomolgus HSC-F T cell line
T2 construct: whole, on cells; also called CD3 on Cynomolgus PBMCs; CD3 on HSC-F Cynomolgus T cell line
Procedure: To characterize potential cross-reactivity of the anti-human CD3 mAbs to NHP T cells, dose response flow cytometry titration studies were performed on both freshly obtained Cynomolgus PBMCs (Comparative Medicine and Animal Resources Centre—McGill University) or the Cynomolgus derived T cell line, HSC-F (Non-Human Primate Reagent Resource—NIH). Binding studies on fresh Cynomolgus PBMCs was performed on a subset of anti-CD3 mAbs (FIG. 4) whereas the Herpesvirus saimiri immortalized Cynomolgus T cell line HSC-F was employed for further evaluations (FIGS. 5A to 5C). KDapp values were calculated using a non-linear regression model of one-site binding with Hill slope (GraphPad Prism) and tabulated (Table 3b). Similar KDapp values for anti-CD3 mAb 1E2 obtained from binding to fresh Cynomolgus PBMCs (KDapp=0.28 nM) or the HSC-F T cell line (KDapp=0.39 nM) indicated the HSC-F cell line was a suitable surrogate for ex vivo NHP T cells.
HSC-F T cells obtained from the Non-Human Primate Reagent Resource (NIH) were maintained in culture in RPMI media containing 20% FBS and 40 IU/mL recombinant human IL2. 100K HSC-F cells in logarithmic cell growth were treated with graded doses of the anti-CD3 mAbs starting at 100 nM in staining buffer (SB; PBS/1% BSA/0.01% NaN3) for 2 hours at 4° C. in 96 w V-bottom plates. Following plate washing with SB, the cell pellets were resuspended with 25 μL of goat (Fab′)₂ anti-mouse IgG (H+L)− APC secondary antibody (final 5 μg/mL), incubated for 30 minutes at 4° C., followed by flow cytometry analysis. The commercial NHP cross-reactive SP34.2 anti-CD3 mAb (BD Biosciences), recombinant anti-human OKT-3 IgG2b (in house produced) and non-specific mIgG were employed as controls. 20K live events were acquired on a BD LSRFortessa flow analyzer and mean fluorescence intensities (MFI) calculated after subtraction of secondary antibody alone values. Using GraphPad Prism software, the data were analyzed using a one site specific binding with Hill slope non-linear regression model to calculate KDapp and BMax values (See Table 2).

human CD3 [5] = molecular target: T1, human CD3; test: cell-based or functional assay
human CD3 [6] = molecular target: T1, human CD3; test: flow competition on Jurkat, 100 nM unlabeled mAb; competitor AF488-SK7 1.5 nM
Procedure: as §1, §2

human CD3 [7] = molecular target: T1, human CD3; test: flow competition on Jurkat, 100 nM unlabeled mAb; competitor AF488-OKT-3 mIgG2b 1.5 nM
Procedure: as §1, §2

human CD3 [8] = molecular target: T1, human CD3; test: flow cytometry, hybridoma supernatant on CD3+ Jurkat cells
Procedure: Cells were stained with either negative control mouse IgG (Jackson Immunoresearch cat #115-000-003) or an anti-GFP 3E6 mAb supernatant or tested hybridoma supernatant. Specific binding was reflected by the increase in the mean fluorescent intensity of antibody binding to Jurkat T-cells (FIGS. 1A to 1F, grey histograms) compared to the Jurkat CD3 negative cell line J.RT3-T3.5 (FIGS. 1A to 1F, open histograms). AF488 labeled positive control mAb OKT3 was also analyzed.

T2 sequence (Q95LI5 22-198, chain 1 of 3): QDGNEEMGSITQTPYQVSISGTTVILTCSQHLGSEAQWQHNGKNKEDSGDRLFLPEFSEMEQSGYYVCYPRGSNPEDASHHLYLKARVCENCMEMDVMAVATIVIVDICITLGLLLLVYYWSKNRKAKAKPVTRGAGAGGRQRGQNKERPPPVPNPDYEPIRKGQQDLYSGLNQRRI
T2 sequence (Q95LI7 23-181, chain 2 of 3): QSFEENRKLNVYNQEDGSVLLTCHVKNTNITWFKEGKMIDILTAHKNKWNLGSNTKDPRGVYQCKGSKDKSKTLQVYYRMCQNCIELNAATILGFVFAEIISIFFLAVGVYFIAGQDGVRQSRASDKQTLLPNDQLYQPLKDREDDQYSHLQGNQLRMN
T2 sequence (Q95LI8 22-171, chain 3 of 3): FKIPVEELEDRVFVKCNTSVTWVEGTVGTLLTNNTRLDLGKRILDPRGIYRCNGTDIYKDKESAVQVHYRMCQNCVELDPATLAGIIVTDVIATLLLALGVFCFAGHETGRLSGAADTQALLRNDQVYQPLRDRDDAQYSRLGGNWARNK

Binder	% residual fluorescence of labeled mAb (human CD3 [1]) [%]	Kd (human CD3 [2]) [nM]	% residual fluorescence of labeled mAb (human CD3 [3]) [%]	Kd (human CD3 [4]) [nM]	Kd (Cynomolgus CD3) [nM]	% max ref. OKT3 (dTomato activation) (human CD3 [5]) [%]	EC50 of dTomato induction (CD69 promoter), Jurkat-CD69-dTomato cells, 24 h (human CD3 [5]) [µg/mL]	% residual fluorescence of labeled mAb (human CD3 [6]) [%]	% residual fluorescence of labeled mAb (human CD3 [7]) [%]	MFI (human CD3 [8]) [MFI]
F332-7E3 (antibody, mouse IgG2a, V domains shown, also called F332-7E3-2) VH: QVQLQQPGAELGKPGTSVKLSCKASGYTFTSYWIHWVKQRPGQGLEWIGNINPNSGSINYNEKFKSKATLTVDKSSSTAYMQLSTLTSEDFAVYYCTRDTSGQYYFDYWGQGTTLTVSS VL: DIVMSQSPSSLAVSAGEKVTMSCKSSQSLLNSRTRKNYLAWYQQKPGQSPKLLIYWASTRESGVPDRFTGSGSGTDFTLTISSVQAEDLAVYYCKQSYHLRTFGGGTKLEIK	12	0.22	67	1.3	0.31	75	0.24	45	79	354
F332-7B7 (antibody, mouse IgG2a, V domains shown, also called F332-7B7-2) VH: QVQLQQPGTELGKPGTSVKLSCKASGYTFTNYWMHWVKQRPGQGLEWIGNINPNSGSTNYNQKFKSKATLTLDKSSSTAYMQFSTLTSEDSAVYYCTRDSSGQYYFDYWGQGTTLTVSS VL: DIVMSQSPSSLAVSAGEKVTMSCKSSQSLLNSRTRKNYLAWYQQKPGQSPKLLIYWASTRESGVPDRFTGSGSGTDFTLTISSVQAEDLAVYYCIQSFHLRTFGGGTKLEIK	9	0.23	79	0.6	0.28	97	0.25	53	86	302
F332-12F6 (antibody, mouse IgG2a, V domains shown, also called F332-12F6-2) VH: QVQLQQPGAELGKPGTSVKLSCKASGYTFTSYWIHWVKQRPGQGLEWIGNINPNSGSTNYNEKFKSKATLTVDKSSSTAYMQLSTLTSEDSAVYYCTRDISGQYYFDYWGQGTTLTVSS VL: DIVMSQSPSSLAVSAGEKVTMSCKSSQSLLNSRTRKSYLAWYQQKPGQSPKLLIYWASTRESGVPDRFTGSGSGTDFTLTISSVQAEDLAVYYCIQSYNLRTFGGGTKLEIK	7	0.2	63	0.6	0.61	87	0.25	42	82	369
F332-8F7 (antibody, mouse IgG2a, V domains shown, also called F332-8F7-3) VH: QVQLQQPGAELGKPGTSVKLSCKASGYTFTSYWIHWVKQRPGQGLEWIGNINPNSGSTNYNEKFKNKATLTVDKSSSTASMQLSTLTSEDSAVYYCTRDISGQYYFDYWGQGTTLTVSS VL: DIVMSQSPSSLAVSTGGEVTMSCKSSQSLLNSRTRKNYLAWYQQKPGQSPKLLIYWASTRESGVPDRFTGSGSGTDFTLTISSVQAEDLAVYYCIQSYSLRTFGGGTKLGIK	10	0.26	59	0.8	0.97	80	0.22	39	87	312
